For 131 substances, amyloid nucleation score results are on record in the supplement of paper PMC12042874.

± gives the uncertainty stated by the source.

The series in a line: amyloid nucleation score (Sup35N fusion, yeast selection) (log enrichment); library NNK3; higher = more nucleation; inactive = no reads after selection. In outline: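 The nucleation score is the DiMSum log enrichment of output over input reads, centred on the mode score of non-aggregating sequences. Only sequences with 100 or more input reads were scored, using Illumina sequencing of input and output plasmid inserts. Psi-negative yeast expressing Sup35N fused to peptides of 20 random codons were induced 24 hours with 100 μM copper sulfate and grown 7 days at 30°C on medium lacking adenine and uracil.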
Regarding RNIELSAPLFWSAAASDVVK, the amyloid nucleation score result is “inactive”.

RNISRS: the amyloid nucleation score result is “inactive”. The same measure for RNKRLKLILYLHRVDEAVAE: “inactive”.

As for RNNDDSVLMDMLCMKCRTWL, the amyloid nucleation score entry was “inactive”. The same measure for RNPDLVVKSQGVNRWGDSRC: “inactive”; for RNSLFLLPSTCSVYIWCFS: 2.8 ± 0.081; for RNSVIWNRLYRMRWV: “inactive”.

As to RNWKSYRYAVGRCDMGSELL, the amyloid nucleation score entry is “inactive”. The same measure for RNYNVV: “inactive”; for RPQSLVYRFISYHRLYYLYR: “inactive”. In the case of RPSSQVYGRWEIYIKYL it was “inactive”. The same measure for RPVVWYISRTSVVLDCAWGS: “inactive”. Regarding RPYGSEVVIFMSVSRKPPPA, the amyloid nucleation score stood at 0.661 ± 0.14. The same measure for RQHGMLCSRSTRMVLFKS: “inactive”. In the case of RQHMDGVVDI it was “inactive”; in that of RQLMIDAQSVYKCCGQPW, “inactive”; in that of RQNPGLGFLNFFLMV, 0.258 ± 0.35.

With RQVVRSTLRLSWSIFLYSYM, the amyloid nucleation score result was “inactive”. Consider RRFVFVYINVPC, for which the amyloid nucleation score entry is “inactive”. In the case of RRFVVGYRDLMMRFIVRHGE it was 0.403 ± 0.24; in that of RRGVRPNATMSA, “inactive”. In the case of RRKLRGALTVEMVFSPVYRR, the amyloid nucleation score entry was “inactive”. The same measure for RRMLNAVEMSYRVGKFSFCW: “inactive”; for RRNDRYVCFAMMSRRSGVYL: “inactive”. The same measure for RRNYRSFKDLLFHDYTFMDS: “inactive”; for RRRVSKANPGDVMIWSVIAK: “inactive”; for RRSSARGIRYMYSLNCNGEL: “inactive”. The same measure for RRVTRSSKAYRVGVSWDGIG: 0.047 ± 0.33; for RRWQVCVAGQDSEGTVKVML: 0.108 ± 0.56; for RRYDNYRYSHRMFFKRFQAV: “inactive”. Substance RRYSRVKVRRLFMRNNLMLN came in with an amyloid nucleation score of 0.283 ± 0.15.

On to RRYVDRYEAIWWCFCIRKLF, for which the amyloid nucleation score result was “inactive”. The same measure for RSAFYHNVGGKNRVSWSIL: “inactive”.

In the case of RSCCLQPT, the amyloid nucleation score result was “inactive”. RSFFSWAMNMRGLARWAWME registered an amyloid nucleation score of 1.78 ± 0.11. In turn, RSFHYRIACESNLAVEVHFR had an amyloid nucleation score of 1.74 ± 0.066. The same measure for RSGLHVEGLRSLHRGKVGPC: “inactive”; for RSGWCHLPQVRNMWTVIIDG: -0.648 ± 1.1; for RSHECGGSLMFVKLGCG: “inactive”. As to RSHLWGRLASYAMGTHAG, the amyloid nucleation score entry was “inactive”.

As to RSHQKEMCVNFNLPVNFSHR, the amyloid nucleation score result was “inactive”. The same measure for RSHRIF: “inactive”; for RSILRNSLSTQMHIGSVSLM: “inactive”; for RSLVCRFLTGTDMVCGIGVT: “inactive”. For the substance RSLYASLCVRIFDGLYCCMK, the amyloid nucleation score result was “inactive”. The same measure for RSMHLTWYW: 1.4 ± 0.11; for RSMNLRSKLMSACGGFMS: “inactive”. Turning to RSNLRLGSRDKPAIQL, the amyloid nucleation score result was “inactive”. In the case of RSNTPPGISLARPFYPKNRV, the amyloid nucleation score result is “inactive”.

On to RSNWPSTILTSWSARCHWLS, for which the amyloid nucleation score result is “inactive”. In the case of RSPEFCMS it was “inactive”; in that of RSQDNCR, “inactive”; in that of RSRAFGDGKNWMHCRRYVM, “inactive”.

On to RSSFKG, for which the amyloid nucleation score result is “inactive”. Turning to RSSSPIRVHTINGDVYTDVV, the amyloid nucleation score result is “inactive”. The same measure for RSSVLLS: “inactive”; for RSTCCWIR: “inactive”. Regarding RSTFRRLLRCFGFWRRWSCI, the amyloid nucleation score result is “inactive”. In the case of RSTQRTLPQ it was “inactive”; in that of RSTVYWFWRSSELLALRLHR, “inactive”. The substance RSVATLYGLRSCFCLVCSKL registered an amyloid nucleation score of 1.41 ± 0.12.

For RSVVRFWFFLINRHVYELSL, the amyloid nucleation score entry was “inactive”. In the case of RSVYYRSLLGTNYCSFLLFD it was “inactive”; in that of RSYFYTCDSLDALHVHLASH, “inactive”; in that of RSYLN, “inactive”.

On to RTAWHMCLFCLNVTNLSWLM, for which the amyloid nucleation score is 2.15 ± 0.052. In the case of RTDCV it was “inactive”. In the case of RTFFYWIKLAINFSNVCRGF it was “inactive”.

As to RTFIKAKLP, the amyloid nucleation score result was “inactive”. In the case of RTGEFMRGLMVGDSVKWVF it was “inactive”; in that of RTIHVGWVMAIIGTALRCCM, “inactive”. In the case of RTKIAFTRVLFATKLWNETN, the amyloid nucleation score entry is “inactive”. In the case of RTLVPGTHR it was “inactive”; in that of RTLYMLRIALGHGPVTLEI, “inactive”; in that of RTLYSQNFK, “inactive”. In the case of RTMAFLIFS it was 0.172 ± 0.56; in that of RTPVKGDRKSWTDRPISTAY, “inactive”; in that of RTRKQRCHRCVWMLLGDYQR, “inactive”. The same measure for RTSAHGNYFSQLESLRKMML: “inactive”; for RTSYVNLLYIMLDLLIRFRS: “inactive”; for RTWLGWEGNIIPSETGTYRS: “inactive”. Regarding RVCSALCIRVLALFGCCSVE, the amyloid nucleation score amounted to 1.05 ± 0.19.

Consider RVGRSR, for which the amyloid nucleation score is -0.176 ± 1.4. In the case of RVGTAF it was -0.517 ± 0.84; in that of RVGVACKCFIQCLYFVFISI, “inactive”; in that of RVHFALYSV, 1.65 ± 0.062. For RVHLGGMYRWVCEVNV, the amyloid nucleation score entry was “inactive”. As to RVIDQMNPQGGWDLTFDSRR, the amyloid nucleation score result was “inactive”. On to RVLDNTSSCRERNVGGDSFA, for which the amyloid nucleation score result is “inactive”. The same measure for RVPACAYACLAYGGYDDMAG: “inactive”; for RVPYR: “inactive”. For the substance RVQMVLLMNTSFLNVLIMCI, the amyloid nucleation score is -0.375 ± 1. With RVSRAGMIMGPMLLFNKYFD, the amyloid nucleation score result was “inactive”. For the substance RVVAFHIANDLLLSLKKS, the amyloid nucleation score was determined as 1.39 ± 0.093. In the case of RVVLHITGLLPSSKKGVRGE it was 0.433 ± 0.25; in that of RVVLMWDYLIDF, 1.08 ± 0.16; in that of RVVLTVFMFLIQSENACKLH, “inactive”.

Regarding RVVPMVTVGKIRKNLMD, the amyloid nucleation score entry was “inactive”. In the case of RVWRSNSPGAEKWTLLTKTL it was “inactive”; in that of RWCFCWICHYLDVLCHYCLH, “inactive”; in that of RWCYLTEKKFSGLFNL, “inactive”. Regarding RWNEAHITSYVYSRTSMWVF, the amyloid nucleation score result is “inactive”. In the case of RWNMLIDVHLNVYHRQDRWC it was 0.636 ± 0.23; in that of RWQRLSRHGISDSPLAREAA, -0.917 ± 1.8; in that of RWSVSSQTMLSIINDISFFG, 0.099 ± 0.2. The same measure for RWTLYSLSTYYQLCF: 0.685 ± 0.12. The same measure for RWVICEFGR: “inactive”; for RWVKSKFAV: “inactive”.

RYCNAWLAGKSIFAPFVGTM: the amyloid nucleation score entry is “inactive”. In the case of RYFSW it was “inactive”; in that of RYGFADSYMLFLFRYTPSSG, “inactive”. In the case of RYILRSL it was “inactive”; in that of RYKRTGIWCFECNRVLVEVF, “inactive”. The same measure for RYNWVYDFVLNRSSYWCW: “inactive”; for RYRSGLDPFRCSYFNSPFYS: “inactive”; for RYSSNRLTLMWDCIEGGSAW: 1.03 ± 0.14. In the case of RYTFGTAIERVLQVILNEMT, the amyloid nucleation score entry was “inactive”. Consider RYVRCFLYTYKNFFD, for which the amyloid nucleation score entry was “inactive”.

On to RYVSSLLSNLRGQKNCVSVL, for which the amyloid nucleation score entry was “inactive”. In the case of RYVTCNLEINTWDRVRGWHV it was 1.16 ± 0.16; in that of RYYLGMHFINCMRVRVP, “inactive”. In turn, SAESKISIVWMEVRINNIFR returned an amyloid nucleation score of 1.67 ± 0.065. On to SAGMNMLYMYECKSSSMGFC, for which the amyloid nucleation score entry was “inactive”.

Take SALPQH: the amyloid nucleation score entry was “inactive”. The same measure for SALTIVVLFG: 0.775 ± 0.2; for SANGMSNRRYSDHHLYVVSA: “inactive”; for SAPNYVRSSLFCN: “inactive”.

As to SASEKTDSNVVEFCVGRCI, the amyloid nucleation score result is “inactive”.

Regarding SASLLN, the amyloid nucleation score result is “inactive”. The same measure for SAVVMRSQADSFDYLN: “inactive”; for SAYAGYKRLGASEVILLSPY: “inactive”.
